From US20120282183A1

What was measured:
[1] = target: murine CXCR4 on mouse ES cells and mouse embryo fibroblasts (mouse) (UniProt P70658); test: cell-based or functional assay
[2] = target: murine CXCR6 on differentiated WT ES cells (mouse) (UniProt Q9EQ16); test: cell-based or functional assay
Chain of murine CXCR6 on differentiated WT ES cells (mouse) (Q9EQ16 whole entry): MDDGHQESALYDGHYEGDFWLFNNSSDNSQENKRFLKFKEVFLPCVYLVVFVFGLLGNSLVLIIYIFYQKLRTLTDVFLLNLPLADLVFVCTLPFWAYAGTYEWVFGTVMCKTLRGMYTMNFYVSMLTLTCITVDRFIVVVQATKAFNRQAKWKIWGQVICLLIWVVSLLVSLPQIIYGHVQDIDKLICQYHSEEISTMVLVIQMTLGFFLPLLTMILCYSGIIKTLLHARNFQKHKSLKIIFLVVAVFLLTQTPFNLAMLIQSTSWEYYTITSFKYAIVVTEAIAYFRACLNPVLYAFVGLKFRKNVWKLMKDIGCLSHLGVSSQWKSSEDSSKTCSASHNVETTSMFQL

Chain of murine CXCR4 on mouse ES cells and mouse embryo fibroblasts (mouse) (P70658 whole entry): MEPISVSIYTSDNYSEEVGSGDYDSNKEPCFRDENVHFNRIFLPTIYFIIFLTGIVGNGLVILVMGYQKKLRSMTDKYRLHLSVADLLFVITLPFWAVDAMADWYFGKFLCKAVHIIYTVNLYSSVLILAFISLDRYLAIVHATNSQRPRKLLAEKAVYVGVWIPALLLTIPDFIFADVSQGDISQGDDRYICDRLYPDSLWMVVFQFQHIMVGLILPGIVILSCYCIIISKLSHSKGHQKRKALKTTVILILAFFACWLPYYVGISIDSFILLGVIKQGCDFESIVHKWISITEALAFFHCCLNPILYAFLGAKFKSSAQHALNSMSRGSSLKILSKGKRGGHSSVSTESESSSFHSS

Substance | CXCL12 chemotaxis of differentiating WT-ES cells [1] [fold] | chemotaxis of differentiated WT ES cells towards CXCL16 [2] [fold]
chemokine CXCL12 (R&D systems) (ligand) | > 2 | –
chemokine CXCL16 (R&D) (ligand) | – | 2
